Kd data for eight sequences are collected here from PMC7865891.

The subject of data set [1] is β-conglutin (lupin (species not stated)). Description: MST. Particulars: 0.05% Tween-20, 25 C, Hill EC50 fit, PBS (10 mM phosphate, 135 mM NaCl, 2.7 mM KCl, pH 7.4) + 1.5 mM MgCl2, MST +0.05% Tween-20, 25 C (20 mM KCl for TT derivatives), BLI +0.1% Tween-20, 30 C, SPR ….
Data set [2] shares this test system. Description: SPR. Particulars: 1:1 kinetic model, protein immobilized, PBS (10 mM phosphate, 135 mM NaCl, 2.7 mM KCl, pH 7.4) + 1.5 mM MgCl2, MST +0.05% Tween-20, 25 C (20 mM KCl for TT derivatives), BLI +0.1% Tween-20, 30 C.
The test system is the same in data set [3]. The data set is described as follows: BLI. The settings on record: 2:1 heterogeneous model, 30 C, 0.1% Tween-20, 5' TEG spacer, PBS (10 mM phosphate, 135 mM NaCl, 2.7 mM KCl, pH 7.4) + 1.5 mM MgCl2, MST +0.05% Tween-20, 25 C (20 mM KCl for TT derivatives), BLI +0.1% Tween-20, 30 C, SPR ….

For the sequence GGTGGGGGTGG [Cy5-11-mer], the Kd in data set [1] (binding buffer) was found to be 1.05 nM.

In the case of GGTGGGGGTGGTT [11-mer-TT], the Kd in data set [2] came to 84.9 nM.

As to GGTGGGGGTGGTT [Cy5-11-mer-TT], in data set [1] (20 mM KCl), the dissociation constant (Kd) was 2.59 nM.

TTGGTGGGGGTGG [Cy5-TT-11-mer]: in data set [1] (20 mM KCl), the Kd was 1.88 nM.

As for TTGGTGGGGGTGG [TT-11-mer], in data set [2], the Kd is 7.28 nM.

In the case of TTGGTGGGGGTGGTT [Cy5-TT-11-mer-TT], in data set [1] (20 mM KCl), the Kd came out at 2.71 nM.

As to TTGGTGGGGGTGGTT [TT-11-mer-TT], the Kd in data set [2] was found to be 53.7 nM.

Consider “TTTTTTTTTTTTTTTGGTGGGGGTGG [Biotin-TEG-T15-11-mer]”, for which the Kd came to 6.95 nM in data set [3] (first KD) and 23.3 nM in data set [3] (second KD).
